Test results taken from a protein production outcome set (Wang et al. 2014).

Test: label from the status in PepcDB records

For “MASYYSGFLGCEEPHFLESCSLCRKHLGLNSDIFMYRGDKAFCSNECREEQIESDEAKERKWKKSSRSLRKNSSETKESAAGNTVRTGTLVVA”, the protein production was “failed”.
With “MDMLFQWLLLTAAVAAGWAVGRYGNRSGRASRAIMDEDSVRDRLQFLFTNYSDQAVDNFVQSLAVNKDTVSLHLSIGSHFRNKGETDRAILIHQNLLARPELPARYSPQVTQELAMDYLNAGLLDRAEALFHQLMGDREYGRRSAIALIELYQQEREWEKAAQVAKTLTRSDADPATFKALAYITCELSDGALSRNDDRWTAQKLAKEALDYDRSCVRATLLLMKLQIRQGNFREAANQSLKIFDQNPEFGPEAIDRLMKLEREHGDVSRLYKKLRKLYEQYPSTSLLLALVESVERSSGRPAAIDLLRMELETRPSVRGLLRLVEMAGYEKGMTTDEGRLVSRIGHLILANRPVYRCVSCGFSGQQLHWLCPSCKQWETVRPIQGVEAE” the protein production was “failed”.
For “MRIFFLIFLLAYVGGNVYIFIRTLQMLSGFSLAMKILLSVIYWLVAFSLVIAMLTRHIDMPVILSKSMFHIGSVWLVFTLYMIFALLIADVTKIFVPSLNHGFYYALGATCCLLLYGYYNYRHPQVNKIDVSLDKPIEGNGINIVAVSDVHLGYGTGKAMLKEYVDMINAQHPDLILIGGDLIDNSLTPLYKENMAEELAQLKAPLGIYMVPGNHEYISGIDESVRFLKDTPIQLLRDSVVTLPNGVQIIGRDDRSNRSRHSLPTLLKQADRSKPIILLDHQPYNLAKTDSLGIDLQFSGHTHHGQIWPISWVTDRIYEQSHGYRKWSQSHIYVSSGLSLWGPPFRIGTNSDMAVFHLNQMAK”, the protein production was “not failed”.
In the case of “SVTFSYLAETDYPVFTLGGSTADAARRLAASGCACAPVLDGERYLGMVHLSRLLEGRKGWPTVKEKLGEELLETVRSYRPGEQLFDNLISVAAAKCSVVPLADEDGRYEGVVSRKRILGFLAERI”, the protein production is reported as “not failed”.
For “MTEKFGAKSTADEVLSGVDLRGKRFLITGVSSGIGLETARALVAHGASVVGAVRDRAKAERATASVRDAASQGGGTLELTELDLASLQSIRACADRLLADGRRFDSIIANAGVMATPFARTADGFELQFGTNHLGHFALVNRIASLLADNGRLVVLSSQAHRVADVDLDDPNFERQAYDPWVAYGRSKTATSLFAAEFDKRHRDRGIRAASVMPGNSLTDLPRHLRQEDLQGLFETVGKARAEAGLPPAELKDIPQVAATSVWAAVVADKDEIGGHYLDDCAVAPINDTPNPFADGVRSYALDADKAKRLWAKSEEWIGANTAAI”, the protein production was “failed”.
For “VRIVLVGSGNLATQTALALSEAASPPVQVWSRNAEHAERLASMLPGATATDRTEELLCDAELYLLAVSDHALESVAATLPPTSGIWAHTAGSMPMDTLRPYHAQIGVFYPLQTFSRERRVDYSSIPIYIEGNDESVVRLLESVARLISRNVLRCT”, the protein production was “failed”.
For “MPEVRAERYIPAPPERVYRLAKDLEGLKPYLKEVESLEVVAREGARTRSRWVAVAMGKKVRWLEEEEWDDENLRNRFFSPEGDFDRYEGTWVFLPEGEGTRVVLTLTYELTIPIFGGLLRKLVQKLMQENVESLLKGLEERVLAASS”, the protein production was “not failed”.
With “MDINNKARIHWACRRGMRELDISIMPFFEHEYDSLSDDEKRIFIRLLECDDPDLFNWLMNHGKPADAELEMMVRLIQTRNRERGPVAI” the protein production was “not failed”.
In the case of “MNYVVLGASAAGINAVKTLRELDKDSNIVVISKDENVYSRCMLHHVISEHRTLKQINFVDEDFMEQNNVKWIAGKTVKGIDINKKVVQTEDITVNYDKLLIATGASSAIPPIKNLRDGNFVYSVRNIDDIYKIKEKAQNSKNVVIIGAGLVGIDALVGLFKYEQLNISVAFMEKYILDRQLDEYTASVYENKFKEKGVKFYPSASIQEIVLDNSKNVTGVAFSNGEVLDADMVIVATGVKPNADFLDGTGIEYDRGIIIDDMCQTTQKDIYAAGDVVGKNAIWPLAVKQGIVAAYNMVGKDKKIEDEFAFKNSMNFMDIPTISIGMNTPVDDSYKVLTRHGINDYKKFVFKDNVIYGAVIQGDISYVGVLTYLIKNKVEIYDLENRIFDICYADFFNIKENGEFCYSV”, the protein production is reported as “failed”.
In the case of “MKFWRPGITGKLFLAIFATCIVLLISMHWAVRISFERGFIDYIKHGNEQRLQLLSDALGEQYAQHGNWRFLRNNDRFVFQILRSFEHDNSEDKPGPGMPPHGWRTQFWVVDQNNKVLVGPRAPIPPDGTRRPILVNGAEVGAVIASPVERLTRNTDINFDKQQRQTSWLIVALATLLAALATFLLARGLLAPVKRLVDGTHKLAAGDFTTRVTPTSEDELGKLAQDFNQLASTLEKNQQMRRDFMADISHELRTPLAVLRGELEAIQDGVRKFTPETVASLQAEVGTLTKLVDDLHQLSMSDEGALAYQKAPVDLIPLLEVAGGAFRERFASRGLKLQFSLPDSITVFGDRDRLMQLFNNLLENSLRYTDSGGSLQISAGQRDKTVRLTFADSAPGVSDDQLQKLFERFYRTEVPATVPAGSGLGLAICLNIVEAHNGRIIAAHSPFGGVSITVELPLERDLQREV”, the protein production is reported as “failed”.
In the case of “MEIMKKQNSQINEINKDEIFVVVPAFNEEKMIGETLKNLKKEGYKNIVVVDDGSMDKTSEIAKKEGVIVCRHILNRGLGGALGTGIKCALLYKPKIIITFDADGQHHPKDVEKVVKPVLFEGYDMAIGSRMMDKNELKNMPLVKRIGNFGLNFITYLMGGYFVTDSQSGLRAFSYEAAKKIIGDLKSDRYEVSSEFIILAKKHGLKLKEVPIKTIYTEYSMSRGTNVITGFKILFKLIMQKIF”, the protein production is reported as “failed”.
With “MVQDQIRYDILVQDALRGVIRKVLSEVAKAGLPGSHHFFITFLTNAPGVKISTRLKSRYPEQMTIVLQHQFRDLNVSETAFEVTLSFREVSEKLVIPFHSIQVFYDPVAAFEAAFDLPSNLNSKEGENLENIASTPVILSDTQKKEKKFPKEQISKTNKDSSNNDTKQSADVVSLDSFRKKLEHHHHHH” the protein production was “not failed”.
For “MNFPLVLLILLVVTGGIWLLDYFVLRHKRVSGNTEEPWWVEYPKSFFPIILIVFSLRSFLVEPFKIPSGSMIPTLLIGDFILVNKYTYGIRLPVANLKIIDMNEPQRGEVMVFRFPEDPSIDYIKRVIGVPGDMVTYRNKQLSINDVPVQLEQGGDYKYIDGPAYIYTQRFKENMDGSEHDILINEDMPDIQLSAIHHFPNRENCTFDRTGFSCKVPEGNYFTLGDNRDGSSDSRYWGFVPENHIVGKAFLIWWNFNDLSRIGTLIK”, the protein production was “failed”.
With “MKSVKTLLTRPFNWVVLTFCIIFVGLFIFTFFNAKFYDTPIGQITQINNTQSTQVSDEHHNKDTKHKETLHIHILNGKFEGKTTTITHEYTESQADSEAFSKNDKVLLHVDKNLTTAYITEKKRDSLVVAITGIFLLTVLLVGKKIGLQSILSLALNTCIVLLAIYIHNQSPNISLFGLMSIAIFISTTLTLVLVTGWQWRTLITIISTLLGTFLCVGITQCIIQITDGSGLKFETMSFLTLPPKEVFLASVMIGSLGAVMDVAITIASGMAEILRRTPDISMRRWALAGCNIGQDIMGTMTNILLFSYLSGSLPMLLIYLKNANTITYTISMNWSLEISRAITGGIGIVLTIPITILLMQVWFKLRGVKS” the protein production was “failed”.
For “MPNAIFFYRIQRWLYLHHIPFLPKLIQLLIFLIYNTKITADSKIGKGSYFVCKGISTVLIPGTEIGENCVLGLRFSTVRKFPYKNVPKIGNNVFIGPNVVICGPVEIGDNCIVAANSFVDKSLRGG”, the protein production was “failed”.
For “LKCSTVVCVICLEKPKYRCPACRVPYCSVVCFRKHKEQCNPET”, the protein production was “not failed”.
In the case of “MDLSTAFPTLVTDLPAAFSMSVVGGVGLAMIVLDAFRNDHPAIPWLGVAALGVSAVWEITHLGAPPSTVFFETLRTGGFVAFINLIILLTGLATILLSVPYLNQLRYDYGEVYALIMFCTVGMIMLGSANNMVSIFLGLETMSVCLYVLTGFIREDEGAVESALKYFLLGAFSTGFFLYGIALMYGATGTMALPAMAAAELGTLSTRLLFWGGFALFLVGFFFKVSAAPFHMWTPDVYQGAPTPLTGYMSTATKAAAFAALILVLVHAVPGGEWQLSVAAVAVLTMVIGNVMALAQTNVKRLLAYSSIAHAGYLLVGLSAGTSAGYAGALFYLLVYAVMNIGAFGVMSMLEWDGKEGREQTLSSLAGIANDRPVLGSTMGVFMLSLIGFPPLGGFIGKYLVFAPAVDAGLTWLVVIGVLMSALSAYYYLRVVYVFWMQSADEVAATDPVRAAAFPRATVAATGTLVVCAVALVVLGVFFGGVLETTLGFFETTAMATAP”, the protein production is reported as “failed”.
In the case of “MARKIGSRYTAHQILGRGSAGTVWLGEGPDGPVAIKLLREDLASDQELVSRFVQERTALLGLDHPHVVSVRDLVVDGNDLALVMDLVRGTDLRTRLDRERRLAPEAAVAVVADVADGLAAAHAAGVVHRDVKPENVLLDMQGPLGPGGSHPALLTDFGVAKLIDTPRRTRATKIIGTPDYLAPEIVEGLPPRAAVDIYALATVLYELLAGFTPFGGGHPGAVLRRHVTETVVPLPGIPDELWQLLVQCLAKAPASRLRASELSARLRELLPMLAGMAPLDVDEPDAEQPEDAPDASAASPAAPVSTAEPVRRRGAVPLVPGAKPADSNRDTHTSMRVPAPDELAGGARGTARAPRASGAPRPGSARNRAATRRRRIAVGAGAVALVAAIGVGTWLATGGDEDGGGPQDTRNSAPAAP”, the protein production is reported as “failed”.
For “MMNLPKNIQQPLSLIYLDANATTQVLPQAASAALSTMETLFGNPSSSHISGLQAKQIVDKTRQQAKRIVGAAEGKIIFTSGATEGIQTAILSALVNVKKTLNKSLNNKSYSLLYGATEHKAVPESLKHWNKILEINAEIKAIPVDEKGQLDMAFIAKEVPNALMVCTMAVNNETGVYQDISLLDQTIRTNNPNVAWMVDCVQALGKTDLVLAQTSIDYAPFSGHKLYAPKGIGFMYVKEKAPFTAFIAGGGQESGLRSGTENLPGLAALSEIFSMLLGESEASFTPIKTLHLYRQQLVSALTQAFPEITFNHSFENSVATTLNFAIPGFSSKEIMDLFDAANIRVSSGSACSSKVTRSFVLDAMGLPAWQSESAIRMSFGPAMTQTEIDIACSRIVSAAQALVQSCLTLDKKNIDTQTMNTSSTTNKTELDGLVQFKAGGSCSWLYVDKKTRSAVFIDPLSEVSERLQTLLTCRGLNLVAVIDTHGHADHKSCRNGIAKKFLAEQQTEYLGWPAGAQTTTIHGQTFQYLILGDKWLIKVATPGHTDDSMSLLLCDPVTDSAEKLQVHYAFCGDLILMDSIGRSNFSTSSAPAMYSSLKLMKSLIGNNSLICPSHDYHNEFTTCLETEMKRNSLLRQVINSEIDIEEFTSKKIKMDKDIINESGSEIMCGALIGACQKVVVREYDSASLTKAVKKSSDMKLIDIREPHEYALQHDEKFTSNVPLTRLVQFVKEQQQNKEQEFVLVCRSGGRSQLAAQALARLGFENVGHLKGGYALHQY”, the protein production was “failed”.
In the case of “FQKYQYPIYYGNAIFLADSPKKIDTPLYSPIKIAFEKALKNAKDSVFIASSYFIPGKKMMKIFKNQISKGIELNILTNSLSSTDAIVVYGAWERYRNQLVRMGANVYEIRNDFFNRQIKGRFSTKHSLHGKTIVFDDNLTLLGSFNIDPRSAYINTESAVLFDNPSFAKRVRLSLKDHAQQSWHLVVYRHRVIWEAVEEGILIHEKTSPDTSFFLRLIKEWSKVLPEREL”, the protein production is reported as “failed”.
For “MKIHLGLVVLVFAAMIAAPRSHAADSSAPRVALVIGNSKYPDADKPLSQAVSDARELADDLKRAGFDAELGEDLSGDAMRRAFDRLYQRTKPGAAALVFFSGFGIQSGRQSYLIPADAQIWTEPDVRRDGIALETVLNELNSRGASVKIALIDASRRNPFERRFRSFSAGLAPVIAPSGSLVMYAAALSAVVTDNDSARSPFVTALREEVRAAGRSAEEAFNRARTAVTRASRGEQVPWISSSLAEDFVFTPGAKADKPAVAEPAKQPAAAAPAPAESAKPPTAPAETKPPQAAEAKPSTSRDDDKLVLALASDPTVKSLTAQIADKPSDGNAYYRRGQVYASKGAYRSAIKDFDEAIRLNGKDVEAYNNRCWVRTVIGELEPALADCDQALQLRSNFVDALDSRGLLHLKSGRDKAAIADFDAALKVNPRLTSSLYGRGLARKRIGLASEGEIDLTTAKKLDPNIGKEFAGYGVP”, the protein production was “failed”.
